Assay: soluble fraction after stress (log2 fold change); higher = more stays soluble; pooled small domains, quantitative proteomics
Details: stress: pH 4
In short: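 Values are log2 fold changes, and higher ones mean more of the domain stayed soluble. Each fold change reflects the soluble amount of a domain after acid stress and is taken as a measure of aggregation propensity. The stress was pH 4, applied to pooled custom libraries of small protein domains analysed by high-throughput quantitative proteomics.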

Sequence | soluble fraction (log2)
HMELSAQEIGRRLRIARENADIRQDDAAQVIGMSRPTLVSIEKGVRRVRIQEIQMLARHYGVSVNALLR | -0.2
HMSTANIVVPDVKGKTFEEAKKAIEAEGLTAKAEGDESGVVQKTSPSYGVSVESGSEVTLTLVKSDD | 0.0493
HMSVTVPDVKRMQAEDAKALLSRYRLRSEVIDSVYVDNIPRGAVVEQIPRENSSVKENRIVFLTINSN | -0.546
HMAHSDEAWSVARRVARELDKILDGAGPRRTALVRAAAELRLSTRQIYNLLARYRADRTVTSLLPRR | -0.353
HMVKNTIHVDLKGEVNKPGVYEVEEGTIVNDLITLANGFTKNAYQDNINLSKKLTDEMVIVVSKKGS | -0.461
HMGIILDWELFEQFADKLKRKKVDFVIEPYLRFEGRRGEQSTLFIKDPSGNYLEFKAFKNIDMLFEK | -1.38
HMTKIEYTEQEFNDFIQAYKNNRKMFPEDYIVKTQVVFINKGFSKSQADMIIAQIETRLRLQGE | -0.378
HMKDNPNETFERIAGKITRTLRSGPVRIQQLDLLFSESAGKVVDVLRAMAENGEVLIKDDTIQLNGNN | -0.261
HMEPSERYKALQSLLPDYAKRLKKKGVTRHQLFLEYRLTHPDGYARSRFGTYFQAYLALSHP | ≥ 0.43
HMKIKLQATEQQRKTLDELYVQLKKLEPTSKEDLSLLYRLENPHLVSKQEAQGLISIAIGRVGSLAIEQQ | 0.258
HMPARTANEEAIRKYLLNHDSITRKETQALLKTGQSAAGRILKEMVENGWLARIGNGRSTGYELR | 0.244
HMIDIDNLEKAAILLLSMGTEAAAKVMQKLSRDEVQRLISKMASLSGVSSIEAKWTLQQFFNQYREQSG | -0.832
HMLGRPDMSPIPEGSRNNDLHAWGFGRLANHPDNKRQIEADFFERGRISGLGDAEIRASWNSILRQLGHQ | 0.276
HMDRFVLQLSKRYYDSSIEGVRKALAAFPVKTELLDQDRGGRPFYHENGKENEPVFRIMFHPEEGM | -0.116
HMKEFSFNGGKVIMNYEADRIQIKHDSRPNQEVITLMKRNGFKWSPTNQAWQRQITGNAIYVTKNLLKS | -0.0347
HMTSLGLEGLVNTTAIATSDLRPSGWALAGERKIFVVSEGEFIDNGDKIRILTVDGNRIVVRKETNK | -0.189
HMGALTGQERRAEIMNILRQSTMPLSGAALGKQLGVSRQVVVQDIALLRQSGEEIYATNRGYVTG | ≥ 0.43
HMGDSVLNDKLNTLAGLDEERFKWVLASLNPNNSYSTHSDKMSALMWLVSYFNDEADLKETVPPLPI | -0.325
HMTTPAAISKIKKLEEAKRLLATTTYSMKEIAVKLKYKSHTHFGMDFKNNTGMTPAEYRKAIKAKREKQMN | 0.173
HMHEAILNQIRNEELMLYIGELSDAQQDVILLKYFHQMTFKEIAESFSIPISTVKTRHTAALKKLSTLWK | 0.0907
HMKGEKVTKIELSNFIKFLINDLENKGFFNPPEKKDSMIDNIYSIYNKMTLTKKELNMLWGMHKKLK | -0.676
HMGGEPKALLFAGVETREMAEITQRLEAADIPYEIREDGGSIYVARSEVFNARMMLSADGLPS | 0.233
HMDFGHWAAHKLEQMSEYRLRHGEAVAIGIALDVLYSVRQGLLARPAAERILSLLERLGFTLFDPELKS | -0.291
HMDELIKQVANYIINNRATINETAGAFGKSVSSIKKYINDADKLQRIDFELYQKVKEVQKIVELNGQI | -0.269
HMNMVSGHLQIKKGYYYVVLSYYDNRNKRHVKYVSTGLPEKGNKRKAEAALARVRSEFEPPQE | 0.353

Sequence | soluble fraction (log2)
HMRYLHTMIRVSDLEESLNFFKLLDIHEVSRKENEQARFTLVFLSATGDEKLVENAKSPLIELTFN | -0.471
HMTNSAGIERFLASGAIDGVGPAMARRIVEHFGTEALRIIESVPHRLREISGIGPKTAEKIASSYMRQ | -0.618
HMQGQADFTQGIANFTQYPVGSRITVFTLEGRRVAVVEIGKDGTAQLDMRNKPAGVYIVNTGKQSFKWLK | -0.0678
HMNGLDSVLRNWARQTLASGGENLLGDLTDHVTRLIISEALIMTGGNRTRAAELLGLSRPTLLAKMDKLNL | -0.789
HMTSSQLYLIEEDMEGERLDAFLAEVIADLSRTAIKDLISNGRVLVDGQARKPSYRVKEGEQVLIHVPEAR | -1.31
HMVDQVDKDRFLEALTQLGGSAGNVRLRETLQWEEEVYVIIKDALVKSGTILTGRGRGGSVLLASA | -0.909
HMDLAPLQTVDIAINYAKAAELAAILKSSEGGILSDRGGVTVDERTNTLLIRDTLESIDEARKTI | -0.4
HMKTLELIAAIRKRIAGGYAGADGRLPNIGEIAKDFSVSPMTAQKAVRALVEAGVLTSTRRKGVFLKQPAS | 0.354
HMQARLPFSFAKRHGVILLAATGEGQSDVIYKSGFDIGALAEVRRFVAGEIALKEVDGPSFDRQLTLTYQN | -1.34
HMPIDQAKRKKEIIQNFGIRKIYKFSEIFDLKFGRDNIIVTFLIILDMIKEGVVEINENKEEIEFEYK | -0.04
HMSSDKVWSFEASGKQLQASYVAFENETVYLRASEDGSLLQFPLTDFGMKDQLVVLELYELSAKINRSN | -0.779
HMSLSNMIGKNIQWTHVTKTKDAEGNPKTNSETFAGNVRGVKVLNGKPMVVAQDAKGKLHEVEVSEIEAIA | 0.22
HMTAVPADVETVTGFTALDRAGLDTLLARLGLAMDLEDLSFLQAYFRDTERRDPTLTEIRVVDTYWSDH | -1.44
HMSEQLKQIAERIKELRNIAGLGEEELAAKLDIPVDTYREYESGNVDIPVSFLYKISGMFNVELTAIL | -1.05
HMYSIDNPPDWLKNLPKGAIRIGVEVFNQVLSKADDEDRARMAAWSAIKAKYEKADDGQWQPKAA | 0.221
HMVSTEDEISDKLLLDFALEKLSENEKQIVKLRYYNSLTQSKTAEILNMTQVQVSRSEKKILAKLRGII | 0.0807
HMKHFTYEEMELMSIYDPGTREGLIANLEEMRGYLEPDETELRELTDSALEKLRELSDADYEQLELI | -1.48
HMTVKNFNDLPGFKNENLAELKAMGITTISELAEALNDGGKIKEIIKNLSGVGPKTAEKWKDAIG | -0.173
HMKTGNIITVSLVWKGKYYMIRMFFPSASRPTRSDVQNEIEKVYPGSKLSTFSVSDYEPGQPLLQV | -0.092
HMLPAGSDAILRYLSSGAVKGIGVATAARIVEKFGDETLRILEEEPGRLAEIKGITAAKAKAIGEAFAGQ | -0.143
HMDFTPDQIARLDDIISRYKDKPGGLIPVLEEAQVALEYLPIGVQKRIAKGLNLPLSRVYGVVTFYSFFTM | -0.451
HMDLSQTVQAKALARVNVREGAGTHFKSLGKLKKGELLPVFRVGNSWASIWWKGRVAYVHTDYLRFESA | -0.153
HMNEIYHQIKVDNVSDDDISLFQYSGIEFDHADYRRGEYIEFAISNRDLSILNNLGYEYQVVHH | -1.07
HMAVNQEFKNTINRIKYEYSLNQSQIADRLGVKKTYLSDMINGRVPYNETMNKKVNDVFPLPP | ≥ 0.43
HMQVEMVLSQEAHEWLLQRGFIPEYGAREMDRVIAAHLKPLLMREILFGTLKAGGKVRVQVENGALKLQP | -1.74

Sequence | soluble fraction (log2)
HMTRAETPMAFIRAMVEAYTERGLDPNQALRKAQITPSQLKSTNARVTTLQMEWMSETAMREL | -0.464
HMTTQVNTVKIQLANGYEMTVLTSKTNVKEILEDNNIILENNEKVTPNIDEEISSNKTIKITDKSN | -0.0659
HMVPFISVTPTSLSFAKGGESKTVDIEASGAFSVGKVPTGFNLEVVNGRITITADANTGAARNGSVEFILA | 0.00872
HMPTQGELAILRVLWEQGPSTVRAVWEKLNSQSGTGYTTALKLMQIMAQKGLVSRDESQKTHVYRA | -0.511
HMGLWWTEAERELVKTTIEQLYKDTNIAEPVDSKNLRASIPALKAMRTGLSAENQARVDTLLGALQV | -0.915
HMTRDAQLAALERLMDDPSPVVRKAVLKGVQAAGTEGLLWLQQLSKNQTLGPYALALLTELR | -0.0392
HMETMSGTVKWFNTQKGYGFITGDDGAEYFAHQTQIKMDGFRTLDAGDIVEFDVRSEEKGLAAVNIVP | -0.707
HMIPTTELAERLGTTKVANMIMLGALIKASGIISFDDMIKNLGELLGEGKAKLIKLNKEALEVGFN | 0.0451
HMSLGSNISRLRAEKHLSQGDLAEALDVSRQSVSKWETDGSVPDLDKLVKLSRIFGVTLDELVTGTP | 0.0988
HMSNGEWQQGSDGRWWYKFSDGTYPKNKVETIGGKKYGFDSEGWMLANTTKEFSGTTYSFGADGVATS | -0.0709
HMTVPMKILILEDEQRNAMRLIRLLNDIDTTFIIEGPLTNIKEAVDFFQSGKTTDLILADIRL | -0.489
HMARLAGVDLPREKRIEIGLTYIYGIGLARSQEILKKAGINPDIRVKDLTDEQEQAIRNAMDGYIVEGDL | -0.0746
HMNTIFSVNGPVVKVKDTKDFSMMEMVYVGEKKLIGEVIGITESFTTIQVYEVTTGLKVGEPVYTTGAPM | 0.166
HMDVNHVIIDHKGNSIQAIIDSIDLDNVYYQSKIKKESEVIDIDKVYFIFNDFDRVYHYDWSYYENL | -0.468
HMFDGTLSIYPNPSKGIFNLDLLNVKDGEYTITVDNLLGQEVYSEIRNVINSSSKTLDLSNLTKGV | -0.433
HMEKKTILIPPVITVRALAEISQIPVNRLLQELIKNGVFTSINEKIDFDTAVIIGADLNLDIQLL | -0.984
HMQDLPPIHLSRGMTDYTLVRSRRRTLSMELKRDGTVVVHAPLRLGVEKIDAFVAAHEAWLARARTRQAER | 0.196
HMLNMTLGDRIRSRREELRMSQEELATRLGYKSRSTIAKIESGENDLTQSKIVAFAEALSTTARWLLDY | 0.0651
HMTFPAILRELLEKHPQTGKRTTLKELGEAVGTRQQSISLYRNGDTQPSPDILVRIAAFFGVSVDYLL | -0.198
HMESRRVTLLLPYDKAGIADTLRREAAVLSLEYGEDGVTVEAVVKPELWGLVREYVQNDNPK | -0.319
HMNDGTIRVGTNVTIKPSAKRWATGQNIYYGVKGKTYKVIQMNGNRLLLDKVISWINKGDVYVPGS | 0.192
HMSDIYSLFERELGRTLSSYEYEIIGKWIEKGVSEDTIKRALKEAILNGVTNFKYIDKIIYDWSKN | -1.05
HMGGEEINMINLVGLSQSEAENQLAKLKLKIGQVTAEYSDKPSGTVLKQSISANNKVKKGADIDIVVSKG | 0.207
HMGAQPLIEPLSERELEVLALIAEGLTNAEIGRRLFIATGTVKRHVNTIYGKLDVHGRIEAIARARDLHLI | -0.66
HMKTGAKLKNLRKMKKLSQEEVAKVLNLSYSTLSRWENDTRIPTYEDLFKLGQFYGVSVDYLSDPN | -0.853

From the domain aggregation screens of Martell et al. (2025)
